Literature values in publication PMC6133022.

Target: alpha-bungarotoxin (Bungarus multicinctus) (UniProt P60615)
Chain of UniProt P60615 (P60615 22-95): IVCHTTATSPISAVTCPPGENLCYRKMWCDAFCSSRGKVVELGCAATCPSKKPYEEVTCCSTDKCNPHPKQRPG

Question: Which Kd does the source give for alpha7-nAChR (from UniProt P36544) here?
Answer: Its Kd is 0.094 nM.
